Target: T1, N-terminus tagged ILDR2
T1 sequence (Q71H61 whole entry, species assumed, looked up): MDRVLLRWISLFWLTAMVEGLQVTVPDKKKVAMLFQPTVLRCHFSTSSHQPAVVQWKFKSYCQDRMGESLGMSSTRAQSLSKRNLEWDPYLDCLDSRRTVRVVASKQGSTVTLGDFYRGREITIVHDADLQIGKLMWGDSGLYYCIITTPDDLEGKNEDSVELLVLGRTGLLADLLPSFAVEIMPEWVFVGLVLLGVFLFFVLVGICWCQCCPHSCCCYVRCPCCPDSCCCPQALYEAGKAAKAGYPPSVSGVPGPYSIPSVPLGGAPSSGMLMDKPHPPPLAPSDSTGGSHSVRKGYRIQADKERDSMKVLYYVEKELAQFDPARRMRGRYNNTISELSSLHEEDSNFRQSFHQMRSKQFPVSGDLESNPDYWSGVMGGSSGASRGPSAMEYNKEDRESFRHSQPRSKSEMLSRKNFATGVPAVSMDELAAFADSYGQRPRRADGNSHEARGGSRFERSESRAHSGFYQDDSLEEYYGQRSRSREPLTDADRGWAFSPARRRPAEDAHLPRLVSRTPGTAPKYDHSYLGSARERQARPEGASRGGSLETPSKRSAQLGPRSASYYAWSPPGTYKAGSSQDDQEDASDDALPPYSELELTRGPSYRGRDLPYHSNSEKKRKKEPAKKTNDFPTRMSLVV

B1: V5-tagged PERK (protein)
chain: VAPARSLLAPASETVFGLGAAAAPTSAARVPAVATAEVTVEDAEALPAAAGEPESRATEPDDDVELRPRGRSLVIISTLDGRIAALDAENDGKKQWDLDVGSGSLVSSSLSKPEVFGNKMIIPSLDGDLFQWDRDRESMEAVPFTVESLLESSYKFGDDVVLVGGKSLITYGLSAYSGKLRYICSALGCRRWDSDEMEEEEDILLLQRTQKTVRAVGPRSGSEKWNFSVGHFELRYIPDMETRAGFIESTFKPGGNKEDSKIISDVEEQEATMLDTVIKVSVADWKVMAFSRKGGRLEWEYQFCTPIASAWLVRDGKVIPISLFDDTSYTASEEALGDEEDIVEAARGATENSVYLGMYRGQLYLQSSVRVSEKFPTSPKALESVNGENAIIPLPTIKWKPLIHSPSRTPVLVGSDEFDKCLSNDKYSHEEYSNGALSILQYPYDNGYYLPYYKRERNKRSTQITVRFLDSPHYSKNIRKKDPILLLHWWKEIFGTILLCIVATTFIVRRLFHPQPHRQRKESETQCQTESKYDSVSADVSDNSWNDMKYSGYVSRYLTDFEPIQCMGRGGFGVVFEAKNKVDDCNYAIKRIRLPNRELAREKVMREVKALAKLEHPGIVRYFNAWLETPPEKWQEEMDEIWLKDESTDWPLSSPSPMDAPSVKIRRMDPFSTKEQIEVIAPSPERSRSFSVGISCGQTSSSESQFSPLEFSGTDCGDNSDSADAAYNLQDSCLTDCEDVEDGTVDGNDEGHSFELCPSEASPYTRSREGTSSSIVFEDSGCGNASSKEEPRGNRLHDGNHYVNKLTDLKCSSSRSSSEATTLSTSPTRPTTLSLDFTKNTVGQLQPSSPKVYLYIQMQLCRKENLKDWMNRRCSLEDREHGVCLHIFLQIAEAVEFLHSKGLMHRDLKPSNIFFTMDDVVKVGDFGLVTAMDQDEEEQTVLTPMPAYATHTGQVGTKLYMSPEQIHGNNYSHKVDIFSLGLILFELLYPFSTQMERVRILTDVRNLKFPLLFTQKYPQEHMMVQDMLSPSPTERPEATDIIENAIFENLEFPGKTVLRQRSRSMSSSGTKHSRQPSCSYSPLPGN
Which “cleavage of ILDR2 (western blot of ILDR2 fragments after co-transfection)” value does the source give for B1 here?
Its value is “N-terminus-tagged ILDR2 was also decreased by PERK, but cleaved ILDR2 was not detected”.
